Measured values: WO2017153426A1 (dated 2017)

Biological target: native TSLP (supernatant from stimulated human lung fibroblasts) (human, UniProt Q969D9 29-159, limits assumed)
Test: cell-based or functional assay

Geometric Mean IC50, inhibition of TSLP-induced pSTAT5 in SW756 cells: 0.86 nM
B1: DOM30h-440-81/86 (other)
chain: DIQMTQSPSSLSASVGDRVTITCRASRPIRNWLDWYQQKPGKAPKLLIWGASHLQSGVPSRFSGSGSGTDFTLTISSLQPEDFATYYCVQIGEDPVTFGQGTKVEIK
